The values below come from patent CN114106174A.

For the assay, the target named is OX40 on OX40-overexpressing cells (OX40过表达细胞表面OX40) (UniProt P43489). Put plainly: flow cytometry, positive control at 1 microgram/ml on OX40-overexpressing cells, goat anti-mouse IgG-PE. (A flow cytometer gives signals particle by particle.)
Chain of UniProt P43489 (P43489 29-277 limits assumed): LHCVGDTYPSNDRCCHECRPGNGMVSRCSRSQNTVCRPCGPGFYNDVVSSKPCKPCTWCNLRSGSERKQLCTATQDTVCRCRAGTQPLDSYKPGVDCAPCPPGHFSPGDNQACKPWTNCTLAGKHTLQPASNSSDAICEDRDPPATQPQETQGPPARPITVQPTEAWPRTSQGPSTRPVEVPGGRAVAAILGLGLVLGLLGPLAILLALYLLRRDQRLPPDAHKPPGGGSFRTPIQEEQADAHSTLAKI

Substance “抗-OX40抗体 (clone ACT35, Biolegend) (antibody)” came in with a Y586通道PE荧光值 of 210000.
